Experimental findings from paper doi:10.1101/2021.09.12.459968 (bioRxiv, 2021) are described below.

Data set [1] has as its target full-length mouse NLRP3 (FLAG-mScarlet tag removed), double ring cage (mouse, UniProt Q8R4B8 1-1033). Put plainly: co-sedimentation.
Data set [2] concerns the molecule itself. Put plainly: negative-staining electron microscopy.

B1: recombinant full-length mouse NEK7 (enzyme)
chain: not shown
For the molecule B1, the binding result in data set [1] is given as “binds”.

B2: mouse NLRP3 LRRm6 (K970E_Q1001R_F1029A) (natural protein)
chain: MTSVRCKLAQYLEDLEDVDLKKFKMHLEDYPPEKGCIPVPRGQMEKADHLDLATLMIDFNGEEKAWAMAVWIFAAINRRDLWEKAKKDQPEWNDTCTSHSSMVCQEDSLEEEWMGLLGYLSRISICKKKKDYCKMYRRHVRSRFYSIKDRNARLGESVDLNSRYTQLQLVKEHPSKQEREHELLTIGRTKMRDSPMSSLKLELLFEPEDGHSEPVHTVVFQGAAGIGKTILARKIMLDWALGKLFKDKFDYLFFIHCREVSLRTPRSLADLIVSCWPDPNPPVCKILRKPSRILFLMDGFDELQGAFDEHIGEVCTDWQKAVRGDILLSSLIRKKLLPKASLLITTRPVALEKLQHLLDHPRHVEILGFSEAKRKEYFFKYFSNELQAREAFRLIQENEVLFTMCFIPLVCWIVCTGLKQQMETGKSLAQTSKTTTAVYVFFLSSLLQSRGGIEEHLFSDYLQGLCSLAADGIWNQKILFEECDLRKHGLQKTDVSAFLRMNVFQKEVDCERFYSFSHMTFQEFFAAMYYLLEEEAEGETVRKGPGGCSDLLNRDVKVLLENYGKFEKGYLIFVVRFLFGLVNQERTSYLEKKLSCKISQQVRLELLKWIEVKAKAKKLQWQPSQLELFYCLYEMQEEDFVQSAMDHFPKIEINLSTRMDHVVSSFCIKNCHRVKTLSLGFFHNSPKEEEEERRGGRPLDQVQCVFPDTHVACSSRLVNCCLTSSFCRGLFSSLSTNRSLTELDLSDNTLGDPGMRVLCEALQHPGCNIQRLWLGRCGLSHQCCFDISSVLSSSQKLVELDLSDNALGDFGIRLLCVGLKHLLCNLQKLWLVSCCLTSACCQDLALVLSSNHSLTRLYIGENALGDSGVQVLCEKMKDPQCNLQKLGLVNSGLTSICCSALTSVLKTNQNFTHLYLRSNALGDTGLRLLCEGLLHPDCKLQMLELDNCSLTSHSCWNLSTILTHNHSLRELNLGNNDLGDLCVVTLCEVLKQQGCLLQSLRLGEMYLNRETKRALEALQEEKPELTIVAEISW
In the case of B2, the binding result in data set [2] was “binds”.
